According to US20170183404A1:

Experiments:
[1] = target: Purified Mor1 (Example 9) (Mus musculus (Mouse)) (UniProt P42866); assay: cell-based or functional assay
[2] = target: Purified Mor1 (Example 9) (Mus musculus (Mouse)) (UniProt P42866); assay: method not told at that place (Ki; presumably radioligand displacement)

Sequence of Purified Mor1 (Example 9) (Mus musculus (Mouse)) (P42866 52-358, tags or fused parts left off): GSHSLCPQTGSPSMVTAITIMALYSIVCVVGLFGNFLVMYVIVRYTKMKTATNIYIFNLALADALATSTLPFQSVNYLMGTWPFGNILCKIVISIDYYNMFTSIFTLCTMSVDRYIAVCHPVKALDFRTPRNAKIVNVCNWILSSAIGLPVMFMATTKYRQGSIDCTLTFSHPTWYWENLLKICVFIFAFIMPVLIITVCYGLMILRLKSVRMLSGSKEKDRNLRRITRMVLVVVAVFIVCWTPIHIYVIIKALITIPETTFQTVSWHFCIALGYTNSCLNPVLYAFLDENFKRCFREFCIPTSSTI

B1: XA8639 (VHH)
VHH: QVQLVESGGGLVRPGGSLRLSCVDSERTSYPMGWFRRAPGKEREFVASITWSGIDPTYADSVADRFTTSRDVANNTLYLQMNSLKHEDTAVYYCAARAPVGQSSSPYDYDYWGQGTQVTVSS
In the case of B1, the enhancement of BU72 affinity for Mor1 in HDL particles [1] is reported as 176 fold and the inhibition constant (Ki) of agonist BU72 in [3H]-diprenorphine competition on Mor1 in HDL particles, in presence of 5 µM XA8639 [1] is reported as 0.0085 nM.

B2: XA8635 (VHH)
VHH: QVQLVESGGGLVQAGGSLRLSCAASGSISSISTMGWYRQAPGNERELVAAITSGGSTNYADSVKGRFTISRDNAKNTVYLQMNSLKPEDTAVYYCNFKYYSGSYFYKSEYDYWGQGTQVTVSS
B2 was tested, and the Ki [2] was 12 nM.
